Experimental data: publication PMC5790001
Where two headings read alike, the source gives them in different places.

Legend:
[1] = target: CCR5 (human (endogenous in PM1 cells and MDM)) (UniProt P51681)
[2] = target: CCR5 (human (endogenous in PM1 cells and MDM)) (UniProt P51681); remark: listed apart in the source
[3] = target: CCR5 (human (endogenous in PM1 cells and MDM)) (UniProt P51681); remark: listed apart in the source
[4] = target: CCR5 (human (endogenous in PM1 cells and MDM)) (UniProt P51681); remark: listed apart in the source
[5] = target: human CCR5 on CHO-CD4-CCR5 cells (human) (UniProt P51681)

Row | Substance | other [3] [pM] | further results
1 | CCL5 5p12 5 m (total chemical synthesis) (from UniProt P13501 24-91) (ligand) |  | IC50 of HIV-1BaL inhibition, acute infection assay, protein from total chemical synthesis; blocks HIV-1 entry through CCR5 [1]: 3.9 pM
2 | 6p4-RANTES (E. coli) (from UniProt P13501 24-91) (ligand) |  | other [2]: 35 pM
3 | 5p12 Y27W (from UniProt P13501 24-91) (ligand) | 17 | 
4 | C1C5 27W/28 W (from UniProt P13501 24-91) (ligand) | 833 | 
5 | CCL5 A13P (from UniProt P13501 24-91) (ligand) | > 1000 | 
6 | 5p12 E66S (from UniProt P13501 24-91) (ligand) | 18 | 
7 | 5p12 Y27W/F28W/E66S (from UniProt P13501 24-91) (ligand) | 7.7 | 
8 | CCL5 5p12 5 m (E. coli) (from UniProt P13501 24-91) (ligand) |  | other [2]: 6.1 pM; IC50 of inhibition of HIV-1BaL infection in human monocyte-derived macrophages (MDM); blocks HIV-1 entry through CCR5 [4]: 14.2 pM; IC50 of inhibition of the primary R5 HIV-1 strain 98IN007 (clade C), acute infection assay in PM1 cells; blocks HIV-1 entry through CCR5 [4]: 7.6 pM; IC50 of inhibition of the primary R5 HIV-1 strain 5513 (clade B), acute infection assay in PM1 cells; blocks HIV-1 entry through CCR5 [4]: 15.5 pM
9 | CCL5 Y27W/F28W/E66S (from UniProt P13501 24-91) (ligand) | 46 | 
10 | C1C5 Y27W/F28W/E66S (from UniProt P13501 24-91) (ligand) | 640 | 
11 | CCL5 Y27W/F28W (from UniProt P13501 24-91) (ligand) | 95 | 
12 | CCL5 F12Y/A13V (from UniProt P13501 24-91) (ligand) | 179 | 
13 | CCL5 A13F (from UniProt P13501 24-91) (ligand) | 92 | 
14 | CCL5 F12Y/A13V/Y27W/F28W/E66S (CCL5 5 m) (L. jensenii) (from UniProt P13501 24-91) (ligand) | 34 | 
15 | 5p12 F12Y/A13V/Y27W/F28W/E66S (CCL5 5p12 5 m) (L. jensenii) (from UniProt P13501 24-91) (ligand) | 5.5 | 
16 | CCL5 6p4 5 m (E. coli) (from UniProt P13501 24-91) (ligand) |  | percent of surface CCR5 internalized, flow cytometry (mAb 3A9) of CHO-CD4-CCR5 cells treated with 100 nM ligand, 4 h, 37 °C [5]: 70%; other [2]: 7.9 pM
17 | CCL5 A13M (from UniProt P13501 24-91) (ligand) | 256 | 
18 | CCL5 Y27W (from UniProt P13501 24-91) (ligand) | 255 | 

Row | Substance | other [3] [pM] | further results
19 | 5p12 Y27W/F28W (from UniProt P13501 24-91) (ligand) | 8.2 | 
20 | CCL5 6p4 5 m (total chemical synthesis) (from UniProt P13501 24-91) (ligand) |  | IC50 of HIV-1BaL inhibition, acute infection assay, protein from total chemical synthesis; blocks HIV-1 entry through CCR5 [1]: 3.9 pM
21 | C1C5 E66S (from UniProt P13501 24-91) (ligand) | 1600 | 
22 | 6p4-RANTES (L. jensenii) (from UniProt P13501 24-91) (ligand) | 30 | 
23 | C1C5 Y27W (from UniProt P13501 24-91) (ligand) | 3700 | 
24 | CCL5 E66S (from UniProt P13501 24-91) (ligand) | 190 | 
25 | 5p12-RANTES (E. coli) (from UniProt P13501 24-91) (ligand) |  | other [2]: 21 pM
26 | CCL5 A13W (from UniProt P13501 24-91) (ligand) | 169 | 
27 | 6p4 F12Y/A13V/Y27W/F28W/E66S (CCL5 6p4 5 m) (L. jensenii) (from UniProt P13501 24-91) (ligand) | 4.7 | 
28 | CCL5 A13V (from UniProt P13501 24-91) (ligand) | 86 | 
29 | CCL5 F12Y/A13V/Y27W/F28W (CCL5 4 m) (from UniProt P13501 24-91) (ligand) | 115 | 
30 | CCL5 A13Y (from UniProt P13501 24-91) (ligand) | 78 | 
31 | CCL5 F12P (from UniProt P13501 24-91) (ligand) | > 1000 | 
32 | CCL5 F12W (from UniProt P13501 24-91) (ligand) | > 6500 | 
33 | wt CCL5 (E. coli) (from UniProt P13501 24-91) (ligand) |  | percent of surface CCR5 internalized, flow cytometry (mAb 3A9) of CHO-CD4-CCR5 cells treated with 100 nM ligand, 4 h, 37 °C [5]: 55%; IC50 (pM) of HIV-1BaL inhibition, acute infection assay in PM1 cells (p24), protein purified from E. coli; blocks HIV-1 entry through CCR5 [2]: 810 pM
34 | CCL5 F28W (from UniProt P13501 24-91) (ligand) | 162 | 
35 | 5p12 F12Y/A13V (from UniProt P13501 24-91) (ligand) | 30 | 
